In patent publication US9839671B2, “Peptide and uses therefor” (University of Birmingham, priority 2012, dated 2017):
Entries after “also recorded” stand apart in the source; their conditions may differ.

Legend:
[1] = tested on: transmigration of B cell depleted PBL / T cells / NK cells across TNF-α/IFN-γ stimulated endothelial cells; assay: B cell dependence of adiponectin inhibition (B cell depletion, B cell supernatants, Brefeldin A, NK cells); format: cell-based, human; settings: for effect of B cell supernatants prepared in the presence of Brefeldin A: inhibitor of B cell secretion; for adiponectin inhibition of migration after removal of B cells from PBL: adiponectin 15 μg/ml, B cell depleted PBL
Description: B cells were isolated and incubated in presence or absence of adiponectin at 15 μg/ml. […] For some experiments, B cells were treated with Brefeldin A, an inhibitor of B cell secretion. […] This is shown in FIG. 8, where the data is shown as mean±SEM and is representative of three independent experiments analysed using one-way ANOVA and Bonferroni's multiple comparison post test. ***p<0.001, ns=non-significant.
Refer to FIG. 14. Endothelial cells were cultured in low serum medium and stimulated with TNF-α/IFN-γ for 24 hours in the absence of adiponectin. PBL transmigration was measured after removal of B cells using bead positive selection and after reconstitution with B cells that were isolated using bead negative selection in presence or absence of adiponectin (15 μg/ml). Supernatants from adiponectin-treated B cells or B cell treated with Brefeldin A to block protein secretion were added to PBL.

[2] = tested on: PBL or B cell depleted PBL transmigration across IFN-γ/TNF-α treated HUVEC; assay: S1P signalling in PBL transmigration across HUVEC; format: cell-based, human
Description: Refer to FIG. 19. […]. Levels of SPHK1 and SPHK2 mRNA expression determined by real-time PCR of RNA from B cells and HUVEC (part D, n=2). PBL transmigration was measured across IFN-γ/TNF-α treated HUVEC pre-treated with SPHK1 specific inhibitor (5 μM) in presence of […] (10 ng/ml) (part E).

[3] = tested on: lymphocyte integrin LFA-1 (CD11a/CD18; αLβ2); assay: LFA-1 affinity sites on memory T cells immobilised on ICAM, activated with IP-10; format: cell-based; settings: IP-10 10 ng/ml, S1P 10 μM, 30 minutes
Description: Refer to FIG. 20. 96 well plates were coated with 50 μg/ml of recombinant ICAM overnight at 4° C. The plate was blocked using PBS 4% BSA for an hour at room temperature and PBL treated with IP-10 (10 ng/ml) and/or S1P (10 μM) were added for 30 minutes. Excess of unbound PBL was washed and PBL were labelled for the intermediate affinity site of the lymphocyte integrin LFA-1 (CD11a/CD18; αLβ2) using the KIM127 antibody (10 ug/ml) and for the high affinity site using antibody 24 (10 ug/ml) at 4° C. The expression of both affinity site was measured on memory T cells using mean fluorescence intensity (MFI). […] Data is a pool of two independent experiments.

[4] = tested on: transmigration of peripheral blood lymphocytes (PBL) across TNF-α/IFN-γ stimulated endothelial cells; assay: PBL transendothelial migration, static adhesion (transwell) assay; format: cell-based, human; settings: for PBL transmigration: static assay, adiponectin 0.0001-15 μg/ml, peptide 0.001-10 ng/ml, control peptides 10 ng/ml
[5] = tested on: PBL migration across TNF-α/IFN-γ stimulated endothelial cells under flow; assay: PBL migration, flow based adhesion assay; format: cell-based, human; settings: adiponectin 15 μg/ml
Description: We have been interested in the ability of the adipocyte derived cytokine, adiponectin, to regulate the recruitment of human T cells to inflamed endothelium. […] In our in vitro studies we used static transwell assays, as well as flow based adhesion assays, to track the migration of T cells (which were in crude isolates of peripheral blood lymphocytes [PBL]) across TNF-α and IFN-γ stimulated endothelial cells.
Endothelial cells were cultured in low serum medium and stimulated with TNF-α/IFN-γ for 24 hours in the absence of adiponectin. PBL were isolated and treated with adiponectin at 0.0001 to 15 μg/ml for one hour.
Refer to FIG. 13. Endothelial cells were cultured in low serum medium and stimulated with TNF-α/IFN-γ for 24 hours in the absence of adiponectin. PBL were isolated and treated with adiponectin at 0.0001 to 15 μg/ml for one hour. […] In part (D), compound C, an AMP-kinase inhibitor, was added to PBL at 10 μg/ml for 30 minutes prior to addition of adiponectin at 15 μg/ml for 1 hour. AMPK is a signalling adapter that is required for adiponectin-receptor signalling. […] Data is a pool of at least three independent experiments and were analysed using t-test, one-way ANOVA and Dunnett's multiple comparisons post-test. **[…], ***[…].

[6] = tested on: PBL from T1D patients across TNF-α/IFN-γ stimulated endothelial cells; assay: Transmigration of PBL from type 1 diabetes patients; settings: adiponectin 15 μg/ml one hour or exogenous PEPITEM
Description: Endothelial cells were cultured in low serum medium and stimulated with TNF-α/IFN-γ for 24 hours in absence of adiponectin. […] Data was analysed using t-test and one-way ANOVA and Bonferonni's multiple comparisons post-test. ***p≦1.0001.
Endothelial cells were cultured in low serum medium and stimulated with TNF-α/IFN-γ for 24 hours in the absence of adiponectin. […] Data was analysed using t-test **p<0.01.

C[C@H]1CCC/C=C/[C@@H]2C[C@H](O)C[C@H]2[C@H](O)/C=C/C(=O)O1 [Brefeldin A, reference compound]
effect of B cell supernatants prepared in the presence of Brefeldin A [1]: not able to regulate the migration of T cells | effect of B cell supernatants prepared in the presence of Brefeldin A ([1]; listed as Brefeldin-A): this effect was lost | effect of B cell supernatants prepared in the presence of Brefeldin A ([1]; listed as Brefeldine A): lost

CCCCCCCCCCCCC/C=C/[C@@H](O)[C@@H](N)COP(=O)(O)O [S1P, sphingosine-1-phosphate]
transmigration of B cell depleted PBL pre-treated with S1P ([2]; exogenous S1P 0-100 μM (FIG. 19C)): restores the inhibition of transmigration; also recorded: dose dependently inhibits T cell migration | expression of intermediate (KIM127) and high affinity (antibody 24) sites of LFA-1 on memory T cells (MFI) [3]: down-regulated

CCCCCCc1cccc(NC(=O)[C@H](N)CCP(=O)(O)O)c1 [W146]
effect on PEPITEM inhibition of lymphocyte transmigration ([2]; W146 10 μM with PEPITEM (FIG. 19B)): releases lymphocytes from the inhibitory effects of PEPITEM | effect on adiponectin inhibition of lymphocyte transmigration ([2]; W146 10 μM, adiponectin 15 μg/ml (FIG. 19A)): releases lymphocytes from the inhibitory effects of Adiponectin

c1cc(-c2cnn3cc(-c4ccc(OCCN5CCCCC5)cc4)cnc23)ccn1 [compound C, reference compound]
effect on adiponectin-induced decrease of PBL transmigration ([4]; compound C 10 μg/ml on PBL 30 minutes before adiponectin 15 μg/ml 1 hour): restored to normal, control levels; also recorded: restored to normal control levels; also recorded: ablated | PBL migration in the absence of adiponectin ([4]; compound C alone): did not have any effects

B1: adiponectin (protein)
chain: ETTTQGPGVLLPLPKGACTGWMAGIPGHPGHNGAPGRDGRDGTPGEKGEKGDPGLIGPKGDIGETGVPGAEGPRGFPGIQGRKGEPGEGAYVYRSAFSVGLETYVTIPNMPIRFTKIFYNQQNHYDGSTGKFHCNIPGLYYFAYHITVYMKDVKVSLFKKDKAMLFTYDQYQENNVDQASGSVLLHLEVGDQVWLQVYGEGERNGLYADNDNDSTFTGFLLYHDTN
notes: adipocyte-derived cytokine, used as positive control
EC50, inhibition of PBL transmigration ([4]; adiponectin, static adhesion assay, PBL treated one hour, linear regression (FIG. 1B)): 0.94 µg/mL | EC50 ([4]; adiponectin, static adhesion assay, linear regression (FIG. 13A), read-out: EC50, inhibition of PBL transmigration): ~40 nM | inhibition of PBL transmigration on DMEC ([4]; dermal microvascular endothelium (FIG. 13C)): effective | inhibition of PBL transmigration on HUVEC ([4]; endothelial cells from umbilical cord (FIG. 13C)): effective | inhibition of PBL transmigration on HSEC ([4]; liver sinusoidal endothelial cells (FIG. 13C)): effective | inhibition of PBL transmigration on HSAVEC ([4]; saphenous vein endothelial cells (FIG. 13C)): not | PBL transmigration [4]: significantly and dose dependently reduced; also recorded: dose dependently blocked | PBL transmigration ([4]; listed as Adiponectin): induced a decrease of transmigration | PBL transmigration ([4]; listed as Aq): significantly reduced lymphocyte migration | PBL migration in flow based adhesion assay [5]: equally effective | adiponectin inhibition of migration after removal of B cells from PBL [1]: lost | adiponectin inhibition of migration after removal of B cells from PBL ([1]; listed as Adiponectin): completely inhibited this response | adiponectin inhibition of migration after removal of B cells from PBL ([1]; listed as Aq): completely inhibited this response | migration of natural killer cells ([1]; with adiponectin (FIG. 7B)): not affected | inhibition of transmigration of PBL from T1D patients [6]: refractory; also recorded: significantly compromised | inhibition of transmigration of PBL from T1D patients ([6]; listed as Adiponectin): lost
